# B1: PYD of AIM2 (other, human, UniProt O14862 1-87, looked up)
# chain: MESKYKEILLLTGLDNITDEELDRFKFFLSDEFNIATGKLHTANRIQVATLMIQNAGAVSAVMKTIRIFQKLNYMLLAKRLQEEKEK
# notes: domain: PYD; Made by in vitro transcription/translation for the GST pull-down; GFP- or RFP-tagged in HEK293 for the antibody specificity blot; also called AIM2-PYD
# B2: POP3 (other)
# chain: MESKYKEILLLTSLDNITDEELDRFKCFLPDEFNIATGKLHTLNSTSSQLDLKRWHGVCSEEDRIFQKLNYMLVAKCLREEQETGICGSPSSARSVSQSRLGLSFHGISGNAC
# notes: POP3 as expressed in cells (HEK293, THP-1, hMΦ); in some microscopy endogenous POP3; also called GFP-POP3; PYRIN domain-only protein 3; not shown: N-terminal tag; GFP-POP3 is named for the co-IP, constructs with myc, HA, Flag, GFP or RFP were made
# B3: GST-POP3 (other)
# chain: B2 chain
# notes: also called recombinant POP3; immobilized GST-POP3; not shown: glutathione S-transferase (GST) tag encoded by pGEX-4T1
# B4: PYD of PYHIN1 (other, human, UniProt Q6K0P9 1-88, looked up)
# chain: MANNYKKIVLLKGLEVINDYHFRIVKSLLSNDLKLNPKMKEEYDKIQIADLMEEKFPGDAGLGKLIEFFKEIPTLGDLAETLKREKLK
# notes: domain: PYD; also called IFIX-PYD
# B5: GST-POP1 (other)
# chain: MGTKREAILKVLENLTPEELKKFKMKLGTVPLREGFERIPRGALGQLDIVDLTDKLVASYYEDYAAELVVAVLRDMRMLEEAARLQRAA
# notes: also called immobilized GST-POP1; not shown: glutathione S-transferase (GST) tag encoded by pGEX-4T1
# B6: PYD of MNDA (other, human, UniProt P41218 1-88, looked up)
# chain: MVNEYKKILLLKGFELMDDYHFTSIKSLLAYDLGLTTKMQEEYNRIKITDLMEKKFQGVACLDKLIELAKDMPSLKNLVNNLRKEKSK
# notes: domain: PYD; also called MNDA-PYD
# B7: PYD of IFI16 (other, human, UniProt Q16666 1-88, looked up)
# chain: MGKKYKNIVLLKGLEVINDYHFRMVKSLLSNDLKLNLKMREEYDKIQIADLMEEKFRGDAGLGKLIKIFEDIPTLEDLAETLKKEKLK
# notes: domain: PYD; also called IFI16-PYD; IF116 PYD
# Assays:
# [1] = molecular target: T1, GST control (UniProt P08515 1-218 = GST); experiment: GST pull-down (FIG. 4a)
# T1 construct: Negative control of the GST pull-downs
# Method: (§1) For GST pull down experiments, POP3 was cloned into pGEX-4T1 and affinity purified as a GST fusion protein from E. coli BL21. Proteins were either prepared by in vitro transcription/translation (TNT Quick Coupled Transcription/Translation, Promega), or TCL were prepared from […] (16 hrs) BMDM or THP-1 cells by lysis (50 mM Hepes pH 7.4, 120 mM NaCl, 10% Glycerol, 2 mM EDTA, 0.5% Triton X-100, supplemented with protease inhibitors) as a source of endogenous proteins, and cleared lysates were incubated with immobilized GST-POP3 or GST control for 16 hrs at 4° C., followed by extensive washing with lysis buffer and analysis as above. For ASC cross-linking, 4×10⁶ BMDM were seeded in 60 mm plates and subjected to cross-linking as described 55. Briefly, cells were transfected with 1 μg/ml poly (dA:dT) for 5 hrs, supernatants were removed, cells rinsed with ice-cold PBS and lysed (20 mM Hepes pH 7.4, 100 mM NaCl, 1% NP-40, 1 mM sodium orthovanadate, supplemented with protease inhibitors) and further lysed by shearing. Cleared lysates were stored for immunoblot analysis and the insoluble pellets were resuspended in 500 μl PBS, supplemented with 2 mM disuccinimydyl suberate (DSS, Pierce) and incubated with rotation at room temperature for 30 min. Samples were centrifuged at 5,000 rpm for 10 min at 4° C. and the cross-linked pellets were resuspended in 50 μl Laemmli sample buffer and analyzed by immunoblot. Human lung tissue was embedded in paraffin, cut into 3 μm sections, mounted, deparaffinized and immunostained with mouse monoclonal CD68 (Dako) and rabbit polyclonal POP3 and peroxidase (HRP)/DAB+ and alkaline phosphatase (AP)/Fast Red enzyme/chromogen combinations (Dako) and specific isotype controls (Dako) and haemotoxylin counterstaining of nuclei.
# (§2) GST-POP3, but not GST control, bound to the PYD of AIM2 and IF116.
# [2] = molecular target: the molecule itself; experiment: co-IP in HEK293 cells
# [3] = molecular target: T2, AIM2 (human, UniProt O14862 1-343); experiment: figure title (pull-down, co-IP, co-localisation)
# T2 construct: Endogenous in THP-1 lysates and hMΦ; N-terminally tagged (RFP, myc) where transfected into HEK293; also called endogenous AIM2; RFP-AIM2
# T2 sequence (looked up): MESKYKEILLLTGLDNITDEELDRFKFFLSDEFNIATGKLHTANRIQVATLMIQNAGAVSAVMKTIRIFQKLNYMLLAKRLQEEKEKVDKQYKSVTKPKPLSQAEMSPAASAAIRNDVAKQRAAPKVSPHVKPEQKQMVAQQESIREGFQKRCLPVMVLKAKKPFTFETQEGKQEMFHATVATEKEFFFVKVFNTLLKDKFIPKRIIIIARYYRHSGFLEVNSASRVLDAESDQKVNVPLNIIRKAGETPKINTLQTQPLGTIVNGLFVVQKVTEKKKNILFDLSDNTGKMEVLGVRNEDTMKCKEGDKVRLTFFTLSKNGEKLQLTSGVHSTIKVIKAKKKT
# [4] = molecular target: T3, mouse ASC (mouse, UniProt Q9EPB4 1-193); experiment: GST pull-down from BMDM lysates (FIG. 11a)
# T3 construct: also called mASC; endogenous ASC in BMDM
# T3 sequence (looked up): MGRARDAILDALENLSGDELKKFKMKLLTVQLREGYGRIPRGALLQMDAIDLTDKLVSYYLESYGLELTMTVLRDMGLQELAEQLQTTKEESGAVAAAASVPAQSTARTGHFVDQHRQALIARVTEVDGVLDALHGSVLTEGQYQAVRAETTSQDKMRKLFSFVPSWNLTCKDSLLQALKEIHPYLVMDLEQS
# Method: For GST pull down experiments, POP3 was cloned into pGEX-4T1 and affinity purified as a GST fusion protein from E. coli BL21. Proteins were either prepared by in vitro transcription/translation (TNT Quick Coupled Transcription/Translation, Promega), or TCL were prepared from […] (16 hrs) BMDM or THP-1 cells by lysis (50 mM Hepes pH 7.4, 120 mM NaCl, 10% Glycerol, 2 mM EDTA, 0.5% Triton X-100, supplemented with protease inhibitors) as a source of endogenous proteins, and cleared lysates were incubated with immobilized GST-POP3 or GST control for 16 hrs at 4° C., followed by extensive washing with lysis buffer and analysis as above. For ASC cross-linking, 4×10⁶ BMDM were seeded in 60 mm plates and subjected to cross-linking as described 55. […] Samples were centrifuged at 5,000 rpm for 10 min at 4° C. and the cross-linked pellets were resuspended in 50 μl Laemmli sample buffer and analyzed by immunoblot. […]
# The PYDs of human and mouse ALRs are well conserved. […] To delineate the mechanism by which POP3 inhibits ALR inflammasomes in mouse macrophages, ASC oligomerization was analyzed in response to AIM2 inflammasome stimulation with poly(dA:dT) in WT and CD68-POP3 TG BMDM as a readout for AIM2 inflammasome formation (Fernandes-Alnemri et al. Nature.
# [5] = molecular target: B3; experiment: GST pull-down (FIG. 4a)
# Method: as §1, §2
# [6] = molecular target: T4, AIM2 from BMDM (mouse, UniProt Q91VJ1 1-354); experiment: GST pull-down from BMDM lysates (FIG. 22c)
# T4 construct: also called mAIM2; mouse AIM2
# T4 sequence (looked up): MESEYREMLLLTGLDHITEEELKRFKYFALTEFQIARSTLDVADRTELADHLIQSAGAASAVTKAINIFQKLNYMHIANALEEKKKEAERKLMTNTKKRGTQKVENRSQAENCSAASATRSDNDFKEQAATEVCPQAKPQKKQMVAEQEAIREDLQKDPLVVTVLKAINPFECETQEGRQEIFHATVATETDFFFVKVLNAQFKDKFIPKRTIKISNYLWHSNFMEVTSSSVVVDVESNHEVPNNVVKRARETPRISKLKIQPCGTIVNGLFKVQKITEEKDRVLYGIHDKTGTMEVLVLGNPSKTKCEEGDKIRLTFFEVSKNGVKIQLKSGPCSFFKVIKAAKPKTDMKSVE
# Method: (§3) POP1 was expressed from pGEX-4T1 and affinity purified as a GST fusion protein from E. coli BL21 (Stehlik et al. Biochem. J 373, 101-113 (2003); herein incorporated by reference in its entirety). Protein lysates were prepared from LPS-treated (16 h) BMDM or THP-1 cells by lysis (50 mM Hepes pH 7.4, 120 mM NaCl, 10% Glycerol, 2 mM EDTA, 0.5% Triton X-100, supplemented with protease inhibitors), and cleared lysates were incubated with immobilized GST-POP1 or GST control for 16 h at 4° C., followed by extensive washing with lysis buffer and analysis as above.
# [7] = molecular target: T5, NLRP3 from BMDM (mouse, UniProt Q8R4B8 1-1033); experiment: GST pull-down from BMDM lysates (FIG. 22c)
# T5 construct: also called mNLRP3; mouse NLRP3
# Method: as §3
# [8] = molecular target: T6, NLRP3 (human, UniProt Q96P20 1-1036); experiment: GST pull-down from THP-1 lysates (FIG. 18a)
# T6 construct: Endogenous in THP-1 lysates; MYC-tagged where transfected into HEK293; also called MYC-NLRP3; endogenous NLRP3
# Method: as §3
# (§4) Recruitment of ASC to upstream sensors is essential for inflammasome activation. POP1 specifically bound to endogenous ASC, but not to the PYD-containing PRRs NLRP3 and AIM2 in LPS-primed THP-1 cells (FIG. 18a), emphasizing the selectivity of these interactions. […] Binding of ASC to NLRP3 induces ASC^PYD nucleation, which provides the oligomeric platform essential for caspase-1 activation (Lu et al. Cell 156, 1193-206 (2014); Cai et al. Cell 156, 1207-22 (2014); herein incorporated by reference in their entireties). […] POP1 binding to the ASC^PYD could also directly prevent ASC^PYD self-polymerization.
# [9] = molecular target: T2, AIM2; experiment: GST pull-down from THP-1 lysates (FIG. 18a)
# Method: as §3, §4
# T1 sequence (P08515 whole entry): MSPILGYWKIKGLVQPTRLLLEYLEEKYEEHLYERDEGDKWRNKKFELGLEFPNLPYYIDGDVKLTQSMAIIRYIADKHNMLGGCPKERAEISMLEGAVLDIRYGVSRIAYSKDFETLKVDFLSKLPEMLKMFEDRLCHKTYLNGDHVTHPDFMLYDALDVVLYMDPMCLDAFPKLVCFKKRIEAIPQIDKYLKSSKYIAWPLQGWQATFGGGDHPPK
# T5 sequence (Q8R4B8 whole entry): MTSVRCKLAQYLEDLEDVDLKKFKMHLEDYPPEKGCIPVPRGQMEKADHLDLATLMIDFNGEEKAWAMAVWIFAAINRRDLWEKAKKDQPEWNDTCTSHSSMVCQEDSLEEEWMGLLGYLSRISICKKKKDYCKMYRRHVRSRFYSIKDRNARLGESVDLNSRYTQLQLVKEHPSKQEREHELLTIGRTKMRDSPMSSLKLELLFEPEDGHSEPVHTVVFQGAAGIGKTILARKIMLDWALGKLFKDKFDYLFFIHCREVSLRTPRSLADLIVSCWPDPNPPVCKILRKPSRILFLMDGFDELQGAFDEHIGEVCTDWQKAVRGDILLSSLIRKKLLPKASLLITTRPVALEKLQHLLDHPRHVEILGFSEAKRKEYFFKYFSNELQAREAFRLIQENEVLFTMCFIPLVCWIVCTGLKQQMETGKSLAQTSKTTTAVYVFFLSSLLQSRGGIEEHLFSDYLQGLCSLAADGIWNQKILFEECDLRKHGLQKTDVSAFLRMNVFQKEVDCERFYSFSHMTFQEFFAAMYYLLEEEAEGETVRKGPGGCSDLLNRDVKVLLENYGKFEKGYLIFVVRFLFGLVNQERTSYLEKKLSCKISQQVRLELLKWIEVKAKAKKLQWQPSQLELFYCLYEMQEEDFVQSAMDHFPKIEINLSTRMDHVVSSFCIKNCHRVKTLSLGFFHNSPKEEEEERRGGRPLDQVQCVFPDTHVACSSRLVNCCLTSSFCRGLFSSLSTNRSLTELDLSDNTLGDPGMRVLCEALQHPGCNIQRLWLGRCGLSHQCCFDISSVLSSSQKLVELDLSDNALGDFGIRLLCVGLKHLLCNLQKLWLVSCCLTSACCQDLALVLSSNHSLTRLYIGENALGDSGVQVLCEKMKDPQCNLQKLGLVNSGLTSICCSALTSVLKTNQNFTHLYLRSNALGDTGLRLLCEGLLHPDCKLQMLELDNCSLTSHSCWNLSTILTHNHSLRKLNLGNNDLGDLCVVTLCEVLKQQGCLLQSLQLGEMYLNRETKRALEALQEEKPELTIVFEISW
# T6 sequence (Q96P20 whole entry): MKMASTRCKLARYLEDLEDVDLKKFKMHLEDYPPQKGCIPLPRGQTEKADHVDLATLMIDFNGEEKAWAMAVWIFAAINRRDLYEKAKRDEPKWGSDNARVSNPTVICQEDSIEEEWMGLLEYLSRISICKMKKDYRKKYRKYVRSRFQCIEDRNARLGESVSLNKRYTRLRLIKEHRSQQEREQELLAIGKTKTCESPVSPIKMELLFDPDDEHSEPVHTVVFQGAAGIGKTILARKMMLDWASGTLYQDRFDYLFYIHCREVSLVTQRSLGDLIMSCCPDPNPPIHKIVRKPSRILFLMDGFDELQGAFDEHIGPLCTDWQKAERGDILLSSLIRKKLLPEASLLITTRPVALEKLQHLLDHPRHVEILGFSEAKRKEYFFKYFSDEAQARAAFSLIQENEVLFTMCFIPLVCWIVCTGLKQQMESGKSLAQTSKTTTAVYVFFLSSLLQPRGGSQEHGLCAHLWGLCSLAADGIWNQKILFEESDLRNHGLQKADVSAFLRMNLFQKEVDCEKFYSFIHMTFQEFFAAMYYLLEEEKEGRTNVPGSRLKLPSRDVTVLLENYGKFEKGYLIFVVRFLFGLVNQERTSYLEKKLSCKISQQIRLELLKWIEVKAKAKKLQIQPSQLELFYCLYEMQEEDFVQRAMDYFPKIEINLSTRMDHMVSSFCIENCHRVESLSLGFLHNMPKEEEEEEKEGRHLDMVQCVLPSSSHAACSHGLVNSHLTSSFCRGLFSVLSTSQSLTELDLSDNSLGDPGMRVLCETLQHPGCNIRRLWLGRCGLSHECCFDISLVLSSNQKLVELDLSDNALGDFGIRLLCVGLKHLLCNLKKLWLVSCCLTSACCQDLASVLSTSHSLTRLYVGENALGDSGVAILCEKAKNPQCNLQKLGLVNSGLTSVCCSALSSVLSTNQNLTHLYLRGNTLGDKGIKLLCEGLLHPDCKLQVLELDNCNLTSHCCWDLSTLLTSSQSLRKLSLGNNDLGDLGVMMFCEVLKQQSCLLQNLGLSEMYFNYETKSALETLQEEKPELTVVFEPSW
binder,measurement,setting,value
B1,binding result,[1],no binding
B2,binding result,[2],binds
same,binding result,[3],binds
B3,binding result,[4],no binding
B4,binding result,[5],no binding
B5,binding result,[6],no binding
same,binding result,[7],no binding
same,binding result,[8],no binding
same,binding result,[9],no binding
B6,binding result,[5],no binding
B7,binding result,[1],no binding
